This passage reports CD81 binding activity as percent of the wild type protein (MFI) results from publication PMC3079738.

Bounds are passed on as bounds.

The test addresses human CD81 expressed on transfected CHO cells (human) (UniProt P60033). Nature of the test: flow cytometry on cells; CHO cells transfected with human CD81 plasmid (or naive), 5x10^5 cells incubated with crude 293T cell extract containing E2 for 1 h at room temperature in PBS, 2% fetal calf serum, 0.05% NaN3; detected with goat anti-E2 and FITC anti-goat IgG; MFI as percent of wild type E2 on CHO-CD81. Background: Flow cytometry measures light scatter and fluorescence of single cells or particles in a stream.
Chain of UniProt P60033 (P60033 whole entry): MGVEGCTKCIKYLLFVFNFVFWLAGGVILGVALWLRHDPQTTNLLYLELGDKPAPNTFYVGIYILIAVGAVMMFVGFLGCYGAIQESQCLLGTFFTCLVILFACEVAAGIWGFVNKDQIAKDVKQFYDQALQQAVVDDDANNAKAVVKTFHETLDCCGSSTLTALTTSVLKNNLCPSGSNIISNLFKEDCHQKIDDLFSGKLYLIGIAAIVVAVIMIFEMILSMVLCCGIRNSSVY

As to “E2-W529/A, mutant of the carboxyl terminal truncated HCV E2 protein (aa 364-661), strain H77 (from UniProt P27958 364-661) (domain or fragment)”, the CD81 binding activity as percent of the wild type protein (MFI) is less than 5%.
